The text below walks through data of publication PMC3467252.

Holding throughout (assay): SPR; surface plasmon resonance; who was immobilised is not told in what was shown; mean +/- 95% CI, n=3
(In SPR one partner is held on a chip, and binding of the other changes the refractive index at the surface.)

For test [1], the target named is BAFFR-Fc (UniProt Q96RJ3).
Test [2] has as its target BCMA-Fc (UniProt Q02223).
Test [3] deals with TACI-Fc (extracellular domain of the BLyS receptor TACI fused to the Fc region of human IgG1) (UniProt O14836).
UniProt O14836, sequence (O14836 1-165): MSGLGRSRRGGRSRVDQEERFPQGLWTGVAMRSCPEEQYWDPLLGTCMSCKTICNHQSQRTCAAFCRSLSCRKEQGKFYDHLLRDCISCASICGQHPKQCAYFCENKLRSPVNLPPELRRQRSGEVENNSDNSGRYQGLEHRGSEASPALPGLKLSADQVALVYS

One may read the Kd as a measure of binding affinity in units of concentration. A lower Kd goes with higher affinity.

UniProt Q02223, sequence (Q02223 1-54): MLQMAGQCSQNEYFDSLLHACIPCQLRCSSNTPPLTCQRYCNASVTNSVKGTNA
UniProt Q96RJ3, sequence (Q96RJ3 1-78): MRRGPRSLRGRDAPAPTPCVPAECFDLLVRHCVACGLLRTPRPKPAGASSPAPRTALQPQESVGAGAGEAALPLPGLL

Consider BLyS-gelonin fusion toxin, for which the results for the Kd in test [1], in test [2] and in test [3] were 2.6 nM, 6.2 nM and 0.8 nM, respectively.
